Test results: the Human Domainome abundance scans (Beltran et al. 2025)
± gives the uncertainty stated by the source.

B1: Cytoplasmic polyadenylation element-binding protein 2, residues 513 to 575; numbered along this chain, Q7Z5Q1 (parent)
chain: KRVEVKPYVLDDQMCDECQGARCGGKFAPFFCANVTCLQYYCEFCWANIHSRAGREFHKPLVK

Variants of: B1
Assay: abundance fitness (aPCA) (normalised: wild type 0, dead -1); higher = more abundant; growth selection in yeast, the domain comes from the species named
Conditions: Homo sapiens

First: C32H
Second: C32I
The abundance fitness of the first is lower: -0.917 ± 0.15 for the first, -0.47 ± 0.2 for the second.

Compared with C32F, C32S is higher in abundance fitness: -1.1 ± 0.18 for the first, -0.664 ± 0.06 for the second.

C32G and C32R are within error of each other in abundance fitness: -0.802 ± 0.08 for the first, -0.739 ± 0.079 for the second.

C37D and C37F are within error of each other in abundance fitness: -0.766 ± 0.1 for the first, -0.85 ± 0.14 for the second.

Going from C37I to C37T, the abundance fitness falls from -0.568 ± 0.16 to -1 ± 0.12.

Compared with C37E, C37W is lower in abundance fitness: -0.76 ± 0.083 for the first, -0.952 ± 0.092 for the second.

First: C37S
Second: C18W
The abundance fitness of the first is higher: -0.54 ± 0.059 for the first, -1.07 ± 0.11 for the second.

C18A and C18N are within error of each other in abundance fitness: -0.674 ± 0.081 for the first, -0.748 ± 0.15 for the second.

C18H and C18S are within error of each other in abundance fitness: -1.01 ± 0.21 for the first, -0.764 ± 0.057 for the second.

C18K and C18P are within error of each other in abundance fitness: -0.677 ± 0.077 for the first, -0.84 ± 0.092 for the second.

H50K and H50A are within error of each other in abundance fitness: -0.673 ± 0.082 for the first, -0.674 ± 0.07 for the second.

First: H50W
Second: H50L
The abundance fitness of the first is higher: -0.784 ± 0.093 for the first, -0.965 ± 0.069 for the second.

D12V and D12Y are within error of each other in abundance fitness: -0.221 ± 0.058 for the first, -0.273 ± 0.056 for the second.

Compared with D12K, D12T is lower in abundance fitness: 0.012 ± 0.082 for the first, -0.168 ± 0.051 for the second.

Going from D12M to D12N, the abundance fitness rises from -0.189 ± 0.059 to -0.019 ± 0.049.

First: D12F
Second: D12G
The abundance fitness of the first is lower: -0.312 ± 0.06 for the first, -0.066 ± 0.051 for the second.

R52I and F57R are within error of each other in abundance fitness: 0.029 ± 0.072 for the first, 0.097 ± 0.038 for the second.

F57W and F57I are within error of each other in abundance fitness: 0.026 ± 0.049 for the first, -0.109 ± 0.11 for the second.

F57A and F57L are within error of each other in abundance fitness: 0.125 ± 0.049 for the first, 0.091 ± 0.046 for the second.

C42F and C42Y are within error of each other in abundance fitness: -0.819 ± 0.11 for the first, -0.869 ± 0.094 for the second.

Compared with A21C, A21I is higher in abundance fitness: -0.447 ± 0.058 for the first, -0.217 ± 0.079 for the second.

First: A21P
Second: A21Y
The abundance fitness of the first is lower: -0.52 ± 0.079 for the first, -0.32 ± 0.095 for the second.

Compared with A21M, A21N is higher in abundance fitness: -0.22 ± 0.081 for the first, -0.037 ± 0.08 for the second.

Going from Q13Y to Q13K, the abundance fitness rises from -0.217 ± 0.087 to 0.161 ± 0.058.

Q13A and Q13M are within error of each other in abundance fitness: -0.017 ± 0.048 for the first, -0.056 ± 0.049 for the second.

Q13W and V35W are within error of each other in abundance fitness: -0.372 ± 0.055 for the first, -0.29 ± 0.053 for the second.

First: V35A
Second: V35I
The abundance fitness of the first is higher: 0.039 ± 0.048 for the first, -0.088 ± 0.064 for the second.

Compared with V35R, V35C is lower in abundance fitness: 0.077 ± 0.039 for the first, -0.253 ± 0.076 for the second.

V62I and V62M are within error of each other in abundance fitness: -0.103 ± 0.1 for the first, 0.081 ± 0.22 for the second.

V62R and V62D are within error of each other in abundance fitness: 0.105 ± 0.42 for the first, -0.164 ± 0.22 for the second.

C45P and C45W are within error of each other in abundance fitness: -0.932 ± 0.1 for the first, -1.04 ± 0.11 for the second.

Compared with C45Y, C45V is lower in abundance fitness: -0.917 ± 0.085 for the first, -1.32 ± 0.1 for the second.

Going from D11T to D11V, the abundance fitness rises from -0.239 ± 0.063 to -0.075 ± 0.034.

Compared with D11E, D11S is lower in abundance fitness: 0.084 ± 0.05 for the first, -0.125 ± 0.05 for the second.

Going from D11I to G25H, the abundance fitness falls from 0.022 ± 0.072 to -0.19 ± 0.061.

Going from G25C to G25N, the abundance fitness rises from -0.349 ± 0.086 to -0.025 ± 0.085.

G25S and G25E are within error of each other in abundance fitness: -0.138 ± 0.045 for the first, -0.195 ± 0.066 for the second.

Going from E56V to E56Q, the abundance fitness rises from -0.373 ± 0.05 to -0.214 ± 0.08.

Compared with E56R, E56S is lower in abundance fitness: -0.01 ± 0.037 for the first, -0.128 ± 0.044 for the second.

E56L and E56F are within error of each other in abundance fitness: -0.253 ± 0.043 for the first, -0.235 ± 0.057 for the second.

R2P and R2A are within error of each other in abundance fitness: 0.015 ± 0.068 for the first, -0.096 ± 0.06 for the second.

R2G and R2I are within error of each other in abundance fitness: -0.077 ± 0.073 for the first, 0.048 ± 0.065 for the second.

L61S and L61D are within error of each other in abundance fitness: 0.12 ± 0.04 for the first, 0.04 ± 0.083 for the second.

First: L61M
Second: L61E
The abundance fitness of the first is lower: 0.012 ± 0.056 for the first, 0.146 ± 0.051 for the second.

Going from H58C to H58S, the abundance fitness falls from -0.227 ± 0.062 to -0.523 ± 0.058.

Going from H58E to H58Q, the abundance fitness falls from -0.442 ± 0.069 to -0.663 ± 0.1.

H58D and H58T are within error of each other in abundance fitness: -0.704 ± 0.086 for the first, -0.611 ± 0.082 for the second.

First: H58A
Second: F31S
The abundance fitness of the first is lower: -0.743 ± 0.066 for the first, -0.591 ± 0.053 for the second.

Compared with F31P, F31L is higher in abundance fitness: -0.588 ± 0.069 for the first, -0.328 ± 0.047 for the second.

Compared with S51D, S51A is lower in abundance fitness: 0.174 ± 0.056 for the first, 0.045 ± 0.057 for the second.

S51K and Y8I are within error of each other in abundance fitness: 0.106 ± 0.066 for the first, -0.026 ± 0.07 for the second.

Y8N and Y8E are within error of each other in abundance fitness: 0.13 ± 0.075 for the first, 0.18 ± 0.053 for the second.

First: Y8A
Second: Y8V
The abundance fitness of the first is higher: 0.01 ± 0.04 for the first, -0.086 ± 0.044 for the second.

G24L and G24V are within error of each other in abundance fitness: -0.089 ± 0.035 for the first, -0.083 ± 0.045 for the second.

G24R and G24P are within error of each other in abundance fitness: -0.135 ± 0.04 for the first, -0.21 ± 0.06 for the second.

G24Y and V9K are within error of each other in abundance fitness: -0.088 ± 0.071 for the first, -0.003 ± 0.055 for the second.

V9G and V9C are within error of each other in abundance fitness: -0.087 ± 0.037 for the first, -0.002 ± 0.071 for the second.

V9E and A47E are within error of each other in abundance fitness: -0.022 ± 0.052 for the first, -0.001 ± 0.087 for the second.

A47F and A47H are within error of each other in abundance fitness: -0.235 ± 0.062 for the first, -0.17 ± 0.061 for the second.

Going from A47C to A47K, the abundance fitness rises from -0.318 ± 0.062 to 0.091 ± 0.063.

F27S and F27H are within error of each other in abundance fitness: -0.022 ± 0.047 for the first, -0.08 ± 0.11 for the second.

F27R and F27P are within error of each other in abundance fitness: -0.014 ± 0.047 for the first, -0.01 ± 0.055 for the second.

Compared with F27M, Y41E is lower in abundance fitness: -0.013 ± 0.056 for the first, -0.652 ± 0.081 for the second.

Compared with Y41H, Y41F is higher in abundance fitness: -0.704 ± 0.26 for the first, -0.088 ± 0.11 for the second.

Y41I and Y41V are within error of each other in abundance fitness: -0.694 ± 0.14 for the first, -0.531 ± 0.042 for the second.

T36R and T36V are within error of each other in abundance fitness: -0.151 ± 0.042 for the first, -0.106 ± 0.053 for the second.

T36P and T36N are within error of each other in abundance fitness: -0.054 ± 0.048 for the first, -0.024 ± 0.057 for the second.

P29D and P29C are within error of each other in abundance fitness: -0.096 ± 0.1 for the first, -0.147 ± 0.052 for the second.

Compared with P29I, P29Y is higher in abundance fitness: -0.282 ± 0.073 for the first, -0.122 ± 0.053 for the second.

Going from P29R to P29F, the abundance fitness falls from -0.052 ± 0.038 to -0.31 ± 0.074.

V3F and V3L are within error of each other in abundance fitness: -0.197 ± 0.08 for the first, -0.156 ± 0.043 for the second.

V3Q and V3D are within error of each other in abundance fitness: 0.11 ± 0.056 for the first, 0.107 ± 0.071 for the second.

V3K and V3S are within error of each other in abundance fitness: 0.112 ± 0.063 for the first, 0.013 ± 0.042 for the second.

Going from G20P to G20V, the abundance fitness rises from -0.688 ± 0.078 to -0.418 ± 0.055.

G20W and G20Q are within error of each other in abundance fitness: -0.686 ± 0.078 for the first, -0.582 ± 0.1 for the second.

Going from G20H to K26V, the abundance fitness rises from -0.509 ± 0.086 to -0.06 ± 0.038.

Compared with K26C, K26R is higher in abundance fitness: -0.261 ± 0.054 for the first, -0.027 ± 0.035 for the second.

K26I and K26D are within error of each other in abundance fitness: -0.236 ± 0.091 for the first, -0.148 ± 0.088 for the second.

Going from K26L to K26W, the abundance fitness falls from -0.138 ± 0.036 to -0.509 ± 0.064.

Going from K26E to D16I, the abundance fitness rises from -0.091 ± 0.053 to 0.042 ± 0.073.

Going from D16P to D16C, the abundance fitness rises from -0.129 ± 0.053 to 0.053 ± 0.067.

Compared with D16N, D16E is lower in abundance fitness: 0.253 ± 0.088 for the first, 0.047 ± 0.06 for the second.

First: D16H
Second: I49N
The abundance fitness of the first is higher: 0.076 ± 0.094 for the first, -0.221 ± 0.058 for the second.

For I49E, the abundance fitness was -0.461 ± 0.23.
